According to PMC11998062, “One-Pot Total Synthesis of a Post-translationally Modified Max Transcription Factor Sheds Light on Ser-Phosphorylation and Lys-Acetylation Crosstalk in DNA Binding”:

Experiments:
[1] = test system: MaxS2pS11pK31AcK57Ac S2pS;S11pS;K31Ac;K57Ac;M1Nle;M65Nle;M148Nle, P61244-2; test: BLI; settings: EMSA: 10 mM MES pH 6.0, 150 mM KCl, 1 mM MgCl2, 10% glycerol, room temperature 30 min, 8% TBE gel; CD: same buffer; BLI: 1x PBS, 0.1% BSA, 0.02% Tween-20, 65 nM
Max-WT = Max-WT (UniProt P61244-2, M1Nle;M65Nle;M148Nle); test: EMSA; 1 uM DNA, 0-8 uM protein, 1 mM MgCl2; EMSA: 10 mM MES pH 6.0, 150 mM KCl, 1 mM MgCl2, 10% glycerol, room temperature 30 min, 8% TBE gel; CD: same buffer; BLI: 1x PBS, 0.1% BSA, 0.02% Tween-20, 65 nM biotinylated DNA loaded (temperature not in material); settings: tags: C-terminal extra K; chain copies: 2
Max-WT, sequence (P61244 other isoform, or with tags, fused parts or gaps M1Nle;M65Nle;M148Nle): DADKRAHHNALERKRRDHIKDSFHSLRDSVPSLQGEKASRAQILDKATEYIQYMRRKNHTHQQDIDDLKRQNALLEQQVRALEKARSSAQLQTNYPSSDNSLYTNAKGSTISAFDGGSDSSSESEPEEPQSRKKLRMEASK

MaxS2pS11pK31AcK57Ac S2pS;S11pS;K31Ac;K57Ac;M1Nle;M65Nle;M148Nle, P61244-2, sequence (P61244 whole entry, looked up): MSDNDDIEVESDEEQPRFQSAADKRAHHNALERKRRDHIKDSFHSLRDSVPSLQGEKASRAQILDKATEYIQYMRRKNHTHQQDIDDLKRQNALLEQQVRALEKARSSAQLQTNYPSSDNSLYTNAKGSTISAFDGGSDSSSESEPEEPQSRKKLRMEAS

Molecule	Kd [1] [nM]	binding result (Max-WT)
CCGGCTGACACGTGGTATTAAT (double strand) [biotinylated E-box DNA probe]	1100	–
E-box DNA probe (dsDNA) DNA 1: CCGGCTGACACGTGGTATTAAT DNA 2: ATTAATACCACGTGTCAGCCGG	–	binds
